In patent US20230086210A1 (Hoffmann-La Roche, published 2023):

B1: 4-1BB×PD-L1 2+1 (bispecific agonistic 4-1BB×PD-L1 antibody with bivalent binding to 4-1BB (clone 20H4.9) and monovalent binding to PD-L1, Head to Head 2+1 … (bispecific antibody)
heavy 1: QVQLQQWGAGLLKPSETLSLTCAVYGGSFSGYYWSWIRQSPEKGLEWIGEINHGGYVTYNPSLESRVTISVDTSKNQFSLKLSSVTAADTAVYYCARDYGPGNYDWYFDLWGRGTLVTVSSASTKGPSVFPLAPSSKSTSGGTAALGCLVEDYFPEPVTVSWNSGALTSGVHTFPAVLQSSGLYSLSSVVTVPSSSLGTQTYICNVNHKPSNTKVDEKVEPKSCDKTHTCPPCPAPEAAGGPSVFLFPPKPKDTLMISRTPEVTCVVVDVSHEDPEVKFNWYVDGVEVHNAKTKPREEQYNSTYRVVSVLTVLHQDWLNGKEYKCKVSNKALGAPIEKTISKAKGQPREPQVCTLPPSRDELTKNQVSLSCAVKGFYPSDIAVEWESNGQPENNYKTTPPVLDSDGSFFLVSKLTVDKSRWQQGNVFSCSVMHEALHNHYTQKSLSLSP
heavy 2: not shown
light 1: not shown
light 2: not shown
B2: 4-1BB×PD-L1 1+1 (bispecific antibody with monovalent binding to 4-1BB (clone 20H4.9) and monovalent binding to PD-L1) (bispecific antibody)
heavy 1: B1 heavy 1
heavy 2: not shown
light 1: not shown
light 2: not shown
B3: 4-1BB huIgG1 P329G LALA (anti-human 4-1BB clone 20H4.9 as huIgG1 P329G LALA) (antibody, V domains shown)
VH: QVQLQQWGAGLLKPSETLSLTCAVYGGSFSGYYWSWIRQSPEKGLEWIGEINHGGYVTYNPSLESRVTISVDTSKNQFSLKLSSVTAADTAVYYCARDYGPGNYDWYFDLWGRGTLVTVSS
VL: EIVLTQSPATLSLSPGERATLSCRASQSVSSYLAWYQQKPGQAPRLLIYDASNRATGIPARFSGSGSGTDFTLTISSLEPEDFAVYYCQQRSNWPPALTFGGGTKVEIK
notes: Human IgG1 with P329G L234A L235A

Legend:
[1] = target: human 4-1BB on Jurkat-hu4-1BB-NFκB-luc2 reporter cells (human, UniProt Q07011 24-255); assay: cell-based or functional assay; set-up: AUC of NFκB-activation-induced Luciferase activity curve: unit not given beside the values
[2] = target: T1, human PD-L1 on MKN45-huPD-L1 cells (human, UniProt Q9NZQ7 19-290); assay: flow cytometry on MKN45-huPD-L1 cells, area under the binding curve; set-up: unit not given beside the values
T1 construct: The entry is the complete precursor; also called MKN45-PD-L1; human PD-L1-expressing MKN45 cells

[3] = target: T1, human PD-L1 on MKN45-huPD-L1 cells; assay: flow cytometry on MKN45-huPD-L1 cells, PE-conjugated goat F(ab')2 anti-human Fcγ, geo mean of fluorescence, baseline corrected
Method: All values are baseline corrected by subtracting the baseline values of the blank control (e.g. no primary only secondary detection antibody).
Cells were incubated for 30 min at 4° C. and then washed twice with 80 μL/well DPBS. […] Cells were washed twice with 80 μL/well DPBS and then fixed in 30 μL/well DPBS containing 1% formaldehyde for at least 15 minutes.

Chain of human 4-1BB on Jurkat-hu4-1BB-NFκB-luc2 reporter cells (Q07011 24-255): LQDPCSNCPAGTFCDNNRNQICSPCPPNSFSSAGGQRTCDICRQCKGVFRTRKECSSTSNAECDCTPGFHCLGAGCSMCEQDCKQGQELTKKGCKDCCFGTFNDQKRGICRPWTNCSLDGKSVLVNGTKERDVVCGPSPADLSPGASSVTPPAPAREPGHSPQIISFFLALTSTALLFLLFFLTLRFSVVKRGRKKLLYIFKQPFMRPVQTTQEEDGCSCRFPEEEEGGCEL
T1 sequence (Q9NZQ7 19-290 limits assumed): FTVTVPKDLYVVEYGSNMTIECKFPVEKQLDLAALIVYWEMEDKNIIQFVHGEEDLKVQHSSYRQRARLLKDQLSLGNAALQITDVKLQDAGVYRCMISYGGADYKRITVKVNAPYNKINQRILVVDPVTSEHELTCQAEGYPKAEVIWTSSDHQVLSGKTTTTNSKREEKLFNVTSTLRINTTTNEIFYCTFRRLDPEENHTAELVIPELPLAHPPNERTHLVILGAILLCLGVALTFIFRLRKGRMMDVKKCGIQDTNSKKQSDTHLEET

| Binder | AUC of NFκB-activation-induced Luciferase activity curve [1] | EC50 of NFκB-activation-induced Luciferase activity curve [1] [nM] | AUC [2] | binding result [3] |
| --- | --- | --- | --- | --- |
| B1 | 135000 | 0.037 |  |  |
| B2 | 122000 | 0.097 |  |  |
| B3 | 8870 | 0.32 | 432 | no binding (tested: 100 nM) |
